{
  "source": "paper PMC5688200",
  "about": "“Overexpression of the transcription factor NF-YC9 confers abscisic acid hypersensitivity in Arabidopsis”",
  "binders": {"B1": {"name": "EM6 promoter probe (-277 to -220, contains pEm6.2) (dsDNA)", "DNA 1": "ACCACGTTCAAAGTATACGTCAGCTAATAAAGTCAGACACGTGGCATGTCACCAAGAA", "DNA 2": "TTCTTGGTGACATGCCACGTGTCTGACTTTATTAGCTGACGTATACTTTGAACGTGGT"}},
  "key": {"[1]": {"biological_target": "T1, NF-YC9-6His (Arabidopsis thaliana, UniProt Q8L4B2 1-231)", "T1 sequence": "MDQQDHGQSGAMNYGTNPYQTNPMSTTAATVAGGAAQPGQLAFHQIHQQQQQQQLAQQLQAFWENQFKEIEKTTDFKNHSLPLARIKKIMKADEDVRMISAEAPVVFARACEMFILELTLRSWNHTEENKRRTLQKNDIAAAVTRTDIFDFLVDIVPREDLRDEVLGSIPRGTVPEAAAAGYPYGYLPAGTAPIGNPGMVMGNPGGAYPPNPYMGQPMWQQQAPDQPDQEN", "assay": "EMSA; 5 mM MgCl2, poly(dI-dC); NF-YC9 alone; 25 mM HEPES pH 8.0, 40 mM KCl, 5 mM MgCl2, 1 mM DTT, 1 mM EDTA, 8% glycerol, 1 ug/uL poly(dI-dC), 20 fmol probe, 30 min room temperature, 5% native PAGE", "conditions": "protein: recombinant; tags: C-terminal 6His (codons in reverse primer); label: 5' biotin; blunt"}, "[2]": {"biological_target": "T2, ABI5-6His (Arabidopsis thaliana, UniProt Q9SJN0 1-442)", "T2 sequence": "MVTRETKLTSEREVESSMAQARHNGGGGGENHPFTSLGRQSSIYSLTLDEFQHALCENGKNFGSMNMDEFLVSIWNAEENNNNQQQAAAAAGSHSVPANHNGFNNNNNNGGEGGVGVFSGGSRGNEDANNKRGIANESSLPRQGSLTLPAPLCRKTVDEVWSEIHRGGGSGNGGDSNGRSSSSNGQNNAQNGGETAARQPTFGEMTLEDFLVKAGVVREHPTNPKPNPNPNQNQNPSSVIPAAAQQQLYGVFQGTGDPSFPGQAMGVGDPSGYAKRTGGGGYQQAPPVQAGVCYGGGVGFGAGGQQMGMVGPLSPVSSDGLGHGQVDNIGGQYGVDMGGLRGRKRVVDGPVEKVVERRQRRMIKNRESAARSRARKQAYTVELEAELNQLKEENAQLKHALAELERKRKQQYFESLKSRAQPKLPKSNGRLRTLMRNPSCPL", "assay": "EMSA; 5 mM MgCl2, poly(dI-dC); ABI5 alone, 1 ug; 25 mM HEPES pH 8.0, 40 mM KCl, 5 mM MgCl2, 1 mM DTT, 1 mM EDTA, 8% glycerol, 1 ug/uL poly(dI-dC), 20 fmol probe, 30 min room temperature, 5% native PAGE", "conditions": "protein: recombinant; tags: C-terminal 6His (codons in reverse primer); chain copies: 2; label: 5' biotin; blunt"}},
  "data": [
    {"binder": "B1", "values": [
      {"measurement": "binding result", "setting": "[1]", "result": "no binding"},
      {"measurement": "binding result", "setting": "[2]", "result": "binds"}
    ]}
  ]
}
